Laboratory results from US20060251655A1.

B1: W897stop (C-terminal deletion variant of ADAMTS-13, FLAG appended) (protein)
chain: PSHFQQSCLQALEPQAVSSYLSPGAPLKGRPPSPGFQRQRQRQRRAAGGILHLELLVAVGPDVFQAHQEDTERYVLTNLNIGAELLRDPSLGAQFRVHLVKMVILTEPEGAPNITANLTSSLLSVCGWSQTINPEDDTDPGHADLVLYITRFDLELPDGNRQVRGVTQLGGACSPTWSCLITEDTGFDLGVTIAHEIGHSFGLEHDGAPGSGCGPSGHVMASDGAAPRAGLAWSPCSRRQLLSLLSAGRARCVWDPPRPQPGSAGHPPDAQPGLYYSANEQCRVAFGPKAVACTFAREHLDMCQALSCHTDPLDQSSCSRLLVPLLDGTECGVEKWCSKGRCRSLVELTPIAAVHGRWSSWGPRSPCSRSCGGGVVTRRRQCNNPRPAFGGRACVGADLQAEMCNTQACEKTQLEFMSQQCARTDGQPLRSSPGGASFYHWGAAVPHSQGDALCRHMCRAIGESFIMKRGDSFLDGTRCMPSGPREDGTLSLCVSGSCRTFGCDGRMDSQQVWDRCQVCGGDNSTCSPRKGSFTAGRAREYVTFLTVTPNLTSVYIANHRPLFTHLAVRIGGRYVVAGKMSISPNTTYPSLLEDGRVEYRVALTEDRLPRLEEIRIWGPLQEDADIQVYRRYGEEYGNLTRPDITFTYFQPKPRQAWVWAAVRGPCSVSCGAGLRWVNYSCLDQARKELVETVQCQGSQQPPAWPEACVLEPCPPYWAVGDFGPCSASCGGGLRERPVRCVEAQGSLLKTLPPARCRAGAQQPAVALETCNPQPCPARWEVSEPSSCTSAGGAGLALENETCVPGADGLEAPVTEGPGSVDEKLPAPEPCVGMSCPPGWGHLDATSAGEKAPSPWGSIRTGAQAAHVWDYKDDDDK
B2: T1135stop (C-terminal deletion variant of ADAMTS-13, FLAG appended) (protein)
chain: PSHFQQSCLQALEPQAVSSYLSPGAPLKGRPPSPGFQRQRQRQRRAAGGILHLELLVAVGPDVFQAHQEDTERYVLTNLNIGAELLRDPSLGAQFRVHLVKMVILTEPEGAPNITANLTSSLLSVCGWSQTINPEDDTDPGHADLVLYITRFDLELPDGNRQVRGVTQLGGACSPTWSCLITEDTGFDLGVTIAHEIGHSFGLEHDGAPGSGCGPSGHVMASDGAAPRAGLAWSPCSRRQLLSLLSAGRARCVWDPPRPQPGSAGHPPDAQPGLYYSANEQCRVAFGPKAVACTFAREHLDMCQALSCHTDPLDQSSCSRLLVPLLDGTECGVEKWCSKGRCRSLVELTPIAAVHGRWSSWGPRSPCSRSCGGGVVTRRRQCNNPRPAFGGRACVGADLQAEMCNTQACEKTQLEFMSQQCARTDGQPLRSSPGGASFYHWGAAVPHSQGDALCRHMCRAIGESFIMKRGDSFLDGTRCMPSGPREDGTLSLCVSGSCRTFGCDGRMDSQQVWDRCQVCGGDNSTCSPRKGSFTAGRAREYVTFLTVTPNLTSVYIANHRPLFTHLAVRIGGRYVVAGKMSISPNTTYPSLLEDGRVEYRVALTEDRLPRLEEIRIWGPLQEDADIQVYRRYGEEYGNLTRPDITFTYFQPKPRQAWVWAAVRGPCSVSCGAGLRWVNYSCLDQARKELVETVQCQGSQQPPAWPEACVLEPCPPYWAVGDFGPCSASCGGGLRERPVRCVEAQGSLLKTLPPARCRAGAQQPAVALETCNPQPCPARWEVSEPSSCTSAGGAGLALENETCVPGADGLEAPVTEGPGSVDEKLPAPEPCVGMSCPPGWGHLDATSAGEKAPSPWGSIRTGAQAAHVWTPAAGSCSVSCGRGLMELRFLCMDSALRVPVQEELCGLASKPGSRREVCQAVPCPARWQYKLAACSVSCGRGVVRRILYCARAHGEDDGEEILLDTQCQGLPRPEPQEACSLEPCPPRWKVMSLGPCSASCGLGTARRSVACVQLDQGQDVEVDEAACAALVRPEASVPCLIADCTYRWHVGTWMECSVSCGDGIQRRRDTCLGPQAQAPVPADFCQHLPKPVTVRGCWAGPCVGQGTDYKDDDDK
B3: W808stop (C-terminal deletion variant of ADAMTS-13, FLAG appended) (protein)
chain: PSHFQQSCLQALEPQAVSSYLSPGAPLKGRPPSPGFQRQRQRQRRAAGGILHLELLVAVGPDVFQAHQEDTERYVLTNLNIGAELLRDPSLGAQFRVHLVKMVILTEPEGAPNITANLTSSLLSVCGWSQTINPEDDTDPGHADLVLYITRFDLELPDGNRQVRGVTQLGGACSPTWSCLITEDTGFDLGVTIAHEIGHSFGLEHDGAPGSGCGPSGHVMASDGAAPRAGLAWSPCSRRQLLSLLSAGRARCVWDPPRPQPGSAGHPPDAQPGLYYSANEQCRVAFGPKAVACTFAREHLDMCQALSCHTDPLDQSSCSRLLVPLLDGTECGVEKWCSKGRCRSLVELTPIAAVHGRWSSWGPRSPCSRSCGGGVVTRRRQCNNPRPAFGGRACVGADLQAEMCNTQACEKTQLEFMSQQCARTDGQPLRSSPGGASFYHWGAAVPHSQGDALCRHMCRAIGESFIMKRGDSFLDGTRCMPSGPREDGTLSLCVSGSCRTFGCDGRMDSQQVWDRCQVCGGDNSTCSPRKGSFTAGRAREYVTFLTVTPNLTSVYIANHRPLFTHLAVRIGGRYVVAGKMSISPNTTYPSLLEDGRVEYRVALTEDRLPRLEEIRIWGPLQEDADIQVYRRYGEEYGNLTRPDITFTYFQPKPRQAWVWAAVRGPCSVSCGAGLRWVNYSCLDQARKELVETVQCQGSQQPPAWPEACVLEPCPPYWAVGDFGPCSASCGGGLRERPVRCVEAQGSLLKTLPPARCRAGAQQPAVALETCNPQPCPARWDYKDDDDK
B4: W1016stop (C-terminal deletion variant of ADAMTS-13, FLAG appended) (protein)
chain: PSHFQQSCLQALEPQAVSSYLSPGAPLKGRPPSPGFQRQRQRQRRAAGGILHLELLVAVGPDVFQAHQEDTERYVLTNLNIGAELLRDPSLGAQFRVHLVKMVILTEPEGAPNITANLTSSLLSVCGWSQTINPEDDTDPGHADLVLYITRFDLELPDGNRQVRGVTQLGGACSPTWSCLITEDTGFDLGVTIAHEIGHSFGLEHDGAPGSGCGPSGHVMASDGAAPRAGLAWSPCSRRQLLSLLSAGRARCVWDPPRPQPGSAGHPPDAQPGLYYSANEQCRVAFGPKAVACTFAREHLDMCQALSCHTDPLDQSSCSRLLVPLLDGTECGVEKWCSKGRCRSLVELTPIAAVHGRWSSWGPRSPCSRSCGGGVVTRRRQCNNPRPAFGGRACVGADLQAEMCNTQACEKTQLEFMSQQCARTDGQPLRSSPGGASFYHWGAAVPHSQGDALCRHMCRAIGESFIMKRGDSFLDGTRCMPSGPREDGTLSLCVSGSCRTFGCDGRMDSQQVWDRCQVCGGDNSTCSPRKGSFTAGRAREYVTFLTVTPNLTSVYIANHRPLFTHLAVRIGGRYVVAGKMSISPNTTYPSLLEDGRVEYRVALTEDRLPRLEEIRIWGPLQEDADIQVYRRYGEEYGNLTRPDITFTYFQPKPRQAWVWAAVRGPCSVSCGAGLRWVNYSCLDQARKELVETVQCQGSQQPPAWPEACVLEPCPPYWAVGDFGPCSASCGGGLRERPVRCVEAQGSLLKTLPPARCRAGAQQPAVALETCNPQPCPARWEVSEPSSCTSAGGAGLALENETCVPGADGLEAPVTEGPGSVDEKLPAPEPCVGMSCPPGWGHLDATSAGEKAPSPWGSIRTGAQAAHVWTPAAGSCSVSCGRGLMELRFLCMDSALRVPVQEELCGLASKPGSRREVCQAVPCPARWQYKLAACSVSCGRGVVRRILYCARAHGEDDGEEILLDTQCQGLPRPEPQEACSLEPCPPRWDYKDDDDK
B5: W746stop (C-terminal deletion variant of ADAMTS-13, FLAG appended) (protein)
chain: PSHFQQSCLQALEPQAVSSYLSPGAPLKGRPPSPGFQRQRQRQRRAAGGILHLELLVAVGPDVFQAHQEDTERYVLTNLNIGAELLRDPSLGAQFRVHLVKMVILTEPEGAPNITANLTSSLLSVCGWSQTINPEDDTDPGHADLVLYITRFDLELPDGNRQVRGVTQLGGACSPTWSCLITEDTGFDLGVTIAHEIGHSFGLEHDGAPGSGCGPSGHVMASDGAAPRAGLAWSPCSRRQLLSLLSAGRARCVWDPPRPQPGSAGHPPDAQPGLYYSANEQCRVAFGPKAVACTFAREHLDMCQALSCHTDPLDQSSCSRLLVPLLDGTECGVEKWCSKGRCRSLVELTPIAAVHGRWSSWGPRSPCSRSCGGGVVTRRRQCNNPRPAFGGRACVGADLQAEMCNTQACEKTQLEFMSQQCARTDGQPLRSSPGGASFYHWGAAVPHSQGDALCRHMCRAIGESFIMKRGDSFLDGTRCMPSGPREDGTLSLCVSGSCRTFGCDGRMDSQQVWDRCQVCGGDNSTCSPRKGSFTAGRAREYVTFLTVTPNLTSVYIANHRPLFTHLAVRIGGRYVVAGKMSISPNTTYPSLLEDGRVEYRVALTEDRLPRLEEIRIWGPLQEDADIQVYRRYGEEYGNLTRPDITFTYFQPKPRQAWVWAAVRGPCSVSCGAGLRWVNYSCLDQARKELVETVQCQGSQQPPAWPEACVLEPCPPYWDYKDDDDK

Target: von Willebrand factor (vWF), prepared from plasma cryo fraction, P04275

**Q.** Which “vWF cleaving activity (SDS-PAGE)” value does the source give for B1 here?
**A.** The value was “vWF cleaving activity was clearly recognized from the full-length molecule to W688stop molecule”.

**Q.** B2 was tested. Which “vWF cleaving activity (SDS-PAGE)” value did it give?
**A.** The value was “vWF cleaving activity was clearly recognized from the full-length molecule to W688stop molecule”.

**Q.** Which “vWF cleaving activity (SDS-PAGE)” value does the source give for B3 here?
**A.** Its value is “vWF cleaving activity was clearly recognized from the full-length molecule to W688stop molecule”.

**Q.** How did the “vWF cleaving activity (SDS-PAGE)” value turn out when B4 was run?
**A.** Its value is “vWF cleaving activity was clearly recognized from the full-length molecule to W688stop molecule”.

**Q.** With B5 as the protein, how does the “vWF cleaving activity (SDS-PAGE)” value read?
**A.** The value was “vWF cleaving activity was clearly recognized from the full-length molecule to W688stop molecule”.
